Experimental findings from patent US20240199757A1 (UNIVERSITY OF CHICAGO, published 2024) are described below.

Series [1] deals with T1, Full-length human NT5E (recombinant, in-house) (human, UniProt P21589 27-549).
T1 construct: also called hNT5E; hNT5EWT
T1 sequence: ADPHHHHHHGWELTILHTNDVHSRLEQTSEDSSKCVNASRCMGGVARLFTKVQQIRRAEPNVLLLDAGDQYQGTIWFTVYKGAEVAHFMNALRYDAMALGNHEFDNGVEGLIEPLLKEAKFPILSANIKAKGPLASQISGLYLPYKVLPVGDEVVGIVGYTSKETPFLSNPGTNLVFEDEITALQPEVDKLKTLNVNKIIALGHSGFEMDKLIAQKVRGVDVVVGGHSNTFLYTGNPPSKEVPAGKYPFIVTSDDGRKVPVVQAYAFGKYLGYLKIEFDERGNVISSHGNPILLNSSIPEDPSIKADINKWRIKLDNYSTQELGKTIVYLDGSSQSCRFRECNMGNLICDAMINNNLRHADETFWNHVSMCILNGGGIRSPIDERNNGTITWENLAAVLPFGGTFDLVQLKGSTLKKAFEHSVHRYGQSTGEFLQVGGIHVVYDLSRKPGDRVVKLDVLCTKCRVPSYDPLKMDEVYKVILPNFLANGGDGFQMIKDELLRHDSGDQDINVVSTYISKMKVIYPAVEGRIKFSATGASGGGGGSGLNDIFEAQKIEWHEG
Briefly: DSF thermal shift, 1.5-fold molar excess of Fab, 1 mM ATP (NT5E alone 59° C. and 64° C.). As for the experimental part: With 1 mM ATP alone (red dashed line), the TM shifts from one transition at 49° C. to two transitions at TM 59° C. and 64° C. […] Thermal shift assays of substrate binding knock-out variants hNT5EDF (FIG. 2B) and hNT5EFF (FIG. 2C) show no change in thermal stability with the addition of ATP.
Thermal stability of samples was analyzed by differential scanning fluorimetry (DSF) using a real-time PCR instrument (Bio-Rad CFX384). Protein samples were mixed with 4× Sypro Orange at a final 4 μM concentration. For target/Fab complexes, 1.5-fold molar excess of Fab was used. All reactions were performed in triplicates in a 384-well plate. Thermal melting curves were monitored from 25° C. to 95° C. in steps of 0.5° C./30 s. Wavelengths of 490 and 575 nm were used for excitation and emission, respectively. The melting temperatures were inferred from the first derivative of the melting curves from the mean of triplicate runs using CFX software provided by the manufacturer.

The target of series [2] is T2, N-terminal domain of human NT5E (human, UniProt P21589 27-335).
T2 construct: also called N-terminal hNT5E
T2 sequence: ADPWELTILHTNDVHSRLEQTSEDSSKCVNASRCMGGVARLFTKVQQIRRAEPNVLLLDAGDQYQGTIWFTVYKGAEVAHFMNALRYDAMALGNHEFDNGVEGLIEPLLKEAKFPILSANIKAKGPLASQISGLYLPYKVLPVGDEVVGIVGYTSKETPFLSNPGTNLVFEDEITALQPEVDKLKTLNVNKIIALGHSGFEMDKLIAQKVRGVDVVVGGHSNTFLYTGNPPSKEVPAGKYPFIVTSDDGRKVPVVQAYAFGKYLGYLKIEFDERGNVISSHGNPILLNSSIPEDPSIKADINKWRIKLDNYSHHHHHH
Briefly: SPR, His-captured N-terminal domain, single injection, ATP-free buffer. As for the experimental part:
All SPR experiments were performed at 25° C. using MASS-1 (Bruker) instrument. hNT5E, mNT5E and cNT5E were immobilized onto a nitrilotriacetic acid (NTA) sensor chip via His-tag. For kinetic experiments, after ligand immobilization, 2-fold serial dilutions of the Fabs were injected. After double-reference subtraction data were analyzed with BiaEvaluation (GE Healthcare) or Sierra Analyser (Bruker) software. The experiments were carried in buffers in presence and absence of 1 mM ATP to compare the kinetic parameters of the Fabs binding to closed and open form of NT5E.
In the domain binding experiments, full-length, N-terminal, and C-terminal hNT5E were immobilized as described above.
For orientation: SPR reads the build-up and loss of mass on a sensor chip optically.

Series [3] addresses T3, murine NT5E expressed on 4T1 cells (murine, UniProt Q61503 29-551).
T3 construct: whole, on cells; also called mouse NT5E-expressing 4T1 cells
T3 sequence (looked up): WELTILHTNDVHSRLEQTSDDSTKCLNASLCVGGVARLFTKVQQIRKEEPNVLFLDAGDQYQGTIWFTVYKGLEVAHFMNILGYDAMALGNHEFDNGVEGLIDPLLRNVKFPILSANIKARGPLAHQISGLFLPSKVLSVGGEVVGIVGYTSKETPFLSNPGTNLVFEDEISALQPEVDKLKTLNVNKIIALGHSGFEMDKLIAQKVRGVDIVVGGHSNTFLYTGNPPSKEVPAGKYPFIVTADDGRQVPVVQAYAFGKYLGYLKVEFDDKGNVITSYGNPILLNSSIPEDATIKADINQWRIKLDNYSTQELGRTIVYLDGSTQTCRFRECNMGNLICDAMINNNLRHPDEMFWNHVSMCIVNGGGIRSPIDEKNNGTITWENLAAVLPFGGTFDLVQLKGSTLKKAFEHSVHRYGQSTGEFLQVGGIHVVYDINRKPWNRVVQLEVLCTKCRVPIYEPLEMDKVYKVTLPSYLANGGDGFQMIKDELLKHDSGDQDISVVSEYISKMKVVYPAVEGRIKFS
Put plainly: flow cytometry on 4T1 cells, 1 mM ATP. As for the experimental part:
(§1) Human MDA-MB-231 cells and murine 4T1 cells were grown to 90% confluency, detached with 5 mM EDTA for 15 min at 37° C. and then resuspended in 37° C. lx PBS (#10010031, Gibco) supplemented with 1% FBS and 1OpM ZnCl2. Separate working buffers (WB) of PBS and 1% FBS with or without fixed nucleotide concentrations were used throughout all washing steps to maintain constant condition. In 96-well plates (#3799, Costar), 0.2×10⁶ cells were added per well. The plates were spun at 500×g for 5 min and the supernatant was removed. Anti-NT5E antibodies were diluted to the desired concentration in 100 μL WB, added to the cells and the plates were incubated for 20 min at 37° C. Plates were spun and cells were washed twice with WB then spun a second time. Cells were stained with 100 μL of secondary antibody (Alexa Fluor 647 AffiniPure Goat Anti-Human IgG, F(ab′)2 fragment specific, #109-605-006, Jackson, 1:200) dilution and plates were incubated for 20 min at 37° C. Cells were washed twice with WB then fixed on ice with WB supplemented with 0.5% PFA. Fixing solution was removed by centrifugation and cells were resuspended in cold 1× PBS. Samples were analyzed by flow cytometry using CytoFLEX (Beckman Coulter) and mean fluorescence intensity (MFI) data was extracted using FlowJo software. Resulting binding data was plotted using OriginLab.
Background: Flow cytometry measures light scatter and fluorescence of single cells or particles in a stream.

Series [4] deals with T3, murine NT5E expressed on 4T1 cells. Put plainly: flow cytometry on 4T1 cells, 1 mM ATP; +ATP (1 mM), 4T1 cells. As for the experimental part: as §1

B1: 1789 Fab (Fab, V domains shown)
VH: EVQLVESGGGLVQPGGSLRLSCAASGFNVSYSSIHWVRQAPGKGLEWVASISSSSGYTYYADSVKGRFTISADTSKNTAYLQMNSLRAEDTAVYYCARNYWGWYPFYYFAFDYWGQGTLVTV
VL: DIQMTQSPSSLSASVGDRVTITCRASQSVSSAVAWYQQKPGKAPKLLIYSASSLYSGVPSRFSGSRSGTDFTLTISSLQPEDFATYYCQQGWDYPITFGQGTKVEIKR
Take B1: the “TM of NT5E in the presence of the Fab” value in series [1] turned out to be 66 ° C. The binding result in series [2] was “no binding (tested: 200 nM)”.

B2: 1789 IgG (antibody, V domains shown)
VH: EVQLVESGGGLVQPGGSLRLSCAASGFNVSYSSIHWVRQAPGKGLEWVASISSSSGYTYYADSVKGRFTISADTSKNTAYLQMNSLRAEDTAVYYCARNYWGWYPFYYFAFDYWGQGTLVTVSS
VL: DIQMTQSPSSLSASVGDRVTITCRASQSVSSAVAWYQQKPGKAPKLLIYSASSLYSGVPSRFSGSRSGTDFTLTISSLQPEDFATYYCQQGWDYPITFGQGTKVEIKR
The term EC50 denotes the concentration giving half of the maximal effect. Low readings indicate an effect from little substance, high ones a need for much substance. In the case of B2, the EC50 in series [3] came to 37.3 nM; in series [4] it was 37 nM.
